The values that follow come from the nanobody polyreactivity screen of Harvey et al. (2022).

The nature of the data set: yeast display, Sf9 membrane polyspecificity reagent, FACS + sequencing; frameworks hold sequencing errors. The gist of the method:
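Sorting gates, low and high (top ~1%), were placed on anti-HA fluorescence to track expression and on streptavidin fluorescence to track reagent binding. A clone's polyreactivity label is taken from the gate it came out of. The reagent was 10% biotinylated, detergent-solubilized Sf9 membrane, applied for 1 hour at 4 °C to galactose-induced yeast display cells.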
For “QVQLVESGGGLVQAGGSLRLSCAASGLTFLDYDMGWYRQAPGKERELVADIDWSGGNTYYADSVKGRFTISRDNAKNTVYLQMNSLKPEDTAVYYCNTVTEAVTRRYDYWGQGTQVTVSS”, the “polyreactivity (PSR sort gate)” value is given as “low polyreactivity”. The entry for “QVQLVESGGGLVQAGGSLRLSCAASGSTFYGYAMGWYRPAPGKERELVAAITIGGRTYYADSVKGRFTISRDNAKNTVYLQMNSLKPEDTAVYYCAAAILRTVPELGSRRTYYYWGQGTQVTVSS” is “high polyreactivity”. The entry for “QVQLVESGGGLFHAGGSLRLSCAASGSTFGGNDMGWSIQAPGKERELVASISDGGRTNYADSVKGRFTISRDNAKNTVYLQMNSLKPEDTAVYYCAADYAPVAFDYWGQGTQVTVSS” is “low polyreactivity”; for “QVQLVESGGGLVQAGGSLRLSCAASGLIFVHYDMGWYRQAPGKERELVAAISAGGGSTYYADSVKGRFTISRYNSKNTVYLQMNSLLPEDTAVYYCIARVVNYFRPRTGAREYDFWGQGTQGTVSS” it is “high polyreactivity”; for “QVQLVESGGGLVQAGGTLRLSCAPSGSTFVPNAMGWYRQAPGKERELVATITSSSSRTYYADSVKGRFTISRDNAKNTVYLQMNSLKPEDTAVYYCAADGRRVVARYDYWGQGTQVTVSS” it is “high polyreactivity”. As for “QVQLVESGGGLVQAGGSLRLSCAASGRTFDSNAMGWYRQAPGKERELVAAISWSGGSTYYADSVKGRFTISRDNAKNTVYLQMNSLKPEDTAVYYCNRLGRHAPATRYGYWGQGTQVTVSS”, the “polyreactivity (PSR sort gate)” value is recorded as “high polyreactivity”. The entry for “QVQLVESGGGLVQAGGSLRLSCAASGITFLDYTMGWYRQAPGKERELVATISKSGGSTYYADSVKGRFTISRDNAKNTVYLQMNSLKPEDTAVYYFAARGFSFWRYYYWGQGTQVTVSS” is “high polyreactivity”. The entry for “QVQLVESCGGLVQAGGSLRLSCAASGYTFGYYAMGWYRQAPGKERELVAAISWRGARTNYADSVKGRFTISRDNAKNNVYLQMNSLKPEDTAVYYCNAPKHNTVYTDRYDYWGQGTQVTVSS” is “high polyreactivity”; for “QVQLVESGGGLVQAGGSLRLSCAASGSIFGAYMGWYRQAPGTEREFVAAINRSGSSTYYADSVKGRFTISRDNAKNTVYLQMNSLKPEDTAVYYCAAKYPGGETYPFDYWGQGTQVTVSS” it is “low polyreactivity”. Then “QVQLVESGGGLVQAGGSLRLSCAASGSTFVDNAMGWYRQAPGKERELVAAISTRGGTTYYADSVKGRFTISRDNAKNTVYLQMNSLKPEDTAVYYCAADYYDSGWYGYWGQGTQVTVSS”, with “high polyreactivity”; and “QVQLVESGGGLVQAGGSLRLSCAASGRIFGRNAMGWYRPAPGKERELVAAITSGGSTNYADSVKGRFTISRDNAKNTVYLQMNSLKPEDAAVYYCAARRVIYVRLDYDYWGQGTQVTVSS”, with “high polyreactivity”; and “QVQLVESWGVLVQAGGSLRLSCAASGYTFLVYAMGWYRQAPGKERELVAGITRGSSTYADSVKGRFTISRDNAKNTVYLQMNSLKPEDTAVYYCAARFAKQDYDYWGQGTQVTVSS”, with “high polyreactivity”.

As to “QDQLVESGGGLLQAGGTLRLSCAASGPTFRAKAMGWNRQSPGKERELVAAITWDGGSRYYADSVKGRFTISRDYAKNTVYLQMNSLKPEYTAVYYCNTYPYLWGQGTLVTVSS”, the “polyreactivity (PSR sort gate)” value was “low polyreactivity”. For the sequence “QVQLVESGGGLVQAGGSLRLSCAASGSIFVPYAMGWYRQAPGKERELDAVITSGGSTYYADSVKGRFSISRDNAKNTVYLQMNSLKPEDTAVYYCNADLYYVWSTLSQFDYWGQGTQVTVSS”, the “polyreactivity (PSR sort gate)” value is recorded as “low polyreactivity”. The entry for “QVQLVESGGGLVQAGGSLRLSCAASGRTFWRNAMGWYRQAPGKERELVADITTSGARTYYADSVKGRFTISRDNAKNTVYLQMNSLKPEDTAVYYCAKGPYTPWPKITGYNYWGQGTQVTVSS” is “high polyreactivity”; for “QVQLEESGGGLVQAGGSLRLSCAASGRTFFPYAMGWYRQAPGKERELVAAISHGGRTYYADSVKGRFTISRDNAKNTVYLQMNSLKPEDTAVYYCNALSARSYYWGQGTQVTVSS” it is “high polyreactivity”; for “QVQLVESGGGLVQAGGSLRLSCAASGYTVWGYAMGWYRQAPGKERELVADITISGGSTYYADSVKGRFTISRDNAKNTVYLQMNSLKPDDSAVYYCAASRAFSWWLSYDYWGQGTQVTVSS” it is “high polyreactivity”. As to “QVQLVESAAGLVQAGGRLRLSCAASGYTFSNYAMGWSRQAPGKERELVAAISRSGGSTYYADSVKGRFTISRDNAKNTVYLQMNSLNPVDTAVYYCAASRSGTYDWGLGTQVTVSS”, the “polyreactivity (PSR sort gate)” value is on record as “high polyreactivity”. Regarding “QVQLVESGGGLVQAGGSLRLSCAASGRIFEEYAMGWYRQAPGKERELVAAITWGGSTYYADSVKGRFTISRDNAKNTVYLQMNSLKPEDTAVYYCAALKSYYWYTPRYRGDYWGQGTQVTVSS”, the “polyreactivity (PSR sort gate)” value is given as “low polyreactivity”. Then “QVQLVESGGGLVQAGGSLRLSCAASGRTGVNAIGWYRQAPGKERELVAAINNGDSTYYADSVKGRFTISRDNAKNTVYLQMNSLKPEDTAVYYCAAGLDEGDYWQESDYWGQGTQVTVSS”, with “low polyreactivity”.

Regarding “KVQLVESGGGLVQAGGSLRLSCAASGSTFSLYAMGWYRQAPGKERELVASIRWSGGRTYYADSVKGRFTISRDNAKNTVYLQMKSLKPEDTAVYYCAAAWRYGYGYWGQGTQVTVSS”, the “polyreactivity (PSR sort gate)” value is “high polyreactivity”. Then “QVQLVESGGGLVQAGGSLRLSCAASGSIFGAYVMGWYRQAPGKERELVAAITRRGGSTYYADSVKGRFTISRDNAKNTVYLQMNSLKPEDTAVYYCAARRGAGDGYWGQGTQVTVSS”, with “high polyreactivity”; and “QVQLVESGGGLVQAGGSLRLSCAASVGWYRQAPGKERELVAAISFSGGSTYYADSVKGRFTISRDNAKNTVYLQMNSLKPEDTAVYYCAAENFWQTKEYDYWGQGTQVTVSS”, with “low polyreactivity”.

As for “QVQLVESGGGLVQAGGSLRLSCAASGYIFLPYAMGWYRQAPGKERELVAAITSVGRTYYADSVKGRFTISRDNAKNTVYLQMNSLKPEDTAVYYCAAPRGHGKYYSWGQGTQVTVSS”, the “polyreactivity (PSR sort gate)” value is given as “high polyreactivity”. Then “QVQLVESGGGLVQAGGSLRLSCAASGRIFYLNAMGWYRQAPGKERELVAAISSRGSRTYYADSVKGRFTISRDNAKNTVYLQMNSLKPEDTAVYYCNVRQRKQPDTDDYWGQGTQVTVSS”, with “high polyreactivity”; and “QVQLVESGGGLVQAGGSLRLSCGASGSIFNKYAIGWYRQAPGKERELVAAISVSGTRTYYADSVKGRFTISRDNAKNTCYLQMNSLKPEDTAVYYCAATRLDSTGSMYYYWGQGTQVTVSS”, with “high polyreactivity”; and “QVQLVESGGGLVQAGGSLRLSCAASGITFILYAMGWYRQAPGKERELVASITSGGSTDYADSVKGRFTISRDNAKTTVYLQMNSLKPEDTAVYYCAADGRTYHHHDGGWYRYDYWGQGTQVTVSS”, with “low polyreactivity”. Regarding “QVQLVESGGGLVQAGGSLRLTCAASGRTFYYYAMGWYRQAPGKESELVAAINTRGVSTYYADSVKGRFTISRDNAKNTVYLQMNSLKPEDTAVYYCNKGFSYGRDYWGQGTQVTVSS”, the “polyreactivity (PSR sort gate)” value is “high polyreactivity”. Then “QVQLVESGGGLVQAGGSLRLSCAASGSIFQPYAMGWYRQAPGKERELVAAISSSGGSTTYADSVKGRFTISRDNAKNTVYLQMNSLKPEDTAVYYCAAQYRYYPEAYGMGYWGQGTQVTVSS”, with “low polyreactivity”. The entry for “QVQLVESGGGLVQAGGSLRLSCAASGFIFWSYAMGWYRQERGNEREWVAAISWSGGRTYYADSVKGRFTISRDNAKNTVYLQMNSLKPEDTAVYYCAAVKRDSSQYPALDYWGQGTQVTVSS” is “high polyreactivity”; for “QVQLVESGGGLVQAGGSLRLSCAASGSTSSYYAMGWYRQAPGKERELVAAIRTSGRTYYADSVKGRFTISRDNAKNTVYLQMNSLKPEDTAVYYCNAVYVSPDYDSWGQGTQVTVSS” it is “high polyreactivity”; for “QVQLVESGGGLVQAGGSLRLSCAASGSTFDYYTMGWYRPAPGKERELVAAISSSGGSTYYADSVKGRFTISRDYAKNTVYLQMNSLKPEDTAVYYCAADPSPYGDEYDYWGQGTQVTVSS” it is “low polyreactivity”.

Turning to “QVQLVESGGGLVQAGGSLRLSCAASGRIFGTYAMGWYRQAPGKERELFAAITLSDGSTYYADSVKGRFTISRDNAKNTVYLEMNTLKPEDTAVYYCAAVVDRFHPGLYEYWGQGTQVTVSS”, the “polyreactivity (PSR sort gate)” value was “low polyreactivity”. The entry for “QVQLVETGGGIVQAGGSLRLSCASSGRTFNKYAMGRYRKAPGKERELVAAINYSGGRTDYADSVKGRFTISRDNAKNTVYLQMNSLKPDDTAVYYCAASPTFFVWQGYNYWGQGTQVTVSS” is “low polyreactivity”. Then “QVQLVESGGGLVQAGGSLRLSCAASGRTLHYYAMGWYRQAPGKERELVAAISARVGRTYYADSVKGRFTISRDNAKNTVYLQMNSLKPEDTEVYYCAAAGYITRYDRYDYWGQGTQVTVSS”, with “high polyreactivity”. Turning to “QVQLVESGGGLVQAGGSLRLSCAASGRTFARYVMGWYRQAPGKERELVAAINSGGTTYYADSVKGRFTISRDNAKNTVYLQMNSLKPEDTAVYYCNARRGHYAYDYWGQGTQVTLSS”, the “polyreactivity (PSR sort gate)” value is on record as “high polyreactivity”. Then “QVQLVESGGGLVQAGGSLRLSCAASGSTFARNAMGWYRQAHGKERELVAAITNAGDTNYADSVKGRFTISRDNAKNTVYLQMNSLKPVDTAVYYCAADPILIDEYWGQGTQVTVSS”, with “low polyreactivity”; and “QDQHVESGVGLVQEGGSLPLSCASSAFIIVKYAMGWYRKAPGKERELVAAITSGGSTSYADSVKGRFTISRDNAKNTVYLQMNRLKPEDTAVYYCAASTTAYAYVNYGYWGQGTQVTVSS”, with “low polyreactivity”. Then “QVPLVESGGGLVQAGGSLRISCAASGSTFWYYAMGWYRQAPGKEREMVATITSTGTTNYADSVKGRFTISRDTAKNTVYLQMNSLKPEDTAVYYCNARSWSYSYPYLTYYYIAGYWGQGTQVTVSS”, with “low polyreactivity”; and “QVQLVESGGCLVQAGGSLRLSCAASGSIFSAYAMGWYRQAPGKERELVAGITSSGDSTYYADSVKGRFTISRDKAKNTVYLQMNSLKPEDTAVYYCNRVLGGVPFDHWGQGTQVTVSS”, with “low polyreactivity”; and “QVQLVESGGGLVQAGGRLRLSCAASGRTFRGNVMGWYRQAPGKEREFVAAITKSDGSTYYADSVKGRFTISRDNAKNTVYLQMNSLKPEDTAVYYCAARTGRTGWPWFRYDYWGQGTQVTVSS”, with “low polyreactivity”.
